Source: doi:10.1101/2025.10.08.681152 (bioRxiv, 2025)

Target: EGFP, C-terminally biotinylated (Aequorea victoria GFP, engineered EGFP …, biotin on the C-terminal biotin acceptor peptide)
Test: BLI

B1: GBP* (engineered GFP-Binding Protein, unconjugated) (VHH)
VHH: QVQLVESGGALVQPGGSLRLSCAASGFPVNRYSMRWYRQAPGREREWVAGMSSAGDRSSYEDSVRGRFTISRDDARNTVYLQMNSLRPEDTAVYYCNVNVGFEYWGQGTQVTVSS
B1 gave a Kd of 0.75 nM, a koff of 7.1e-05 s⁻¹ and a kon of 94000 M⁻¹ s⁻¹.
